Here are results for 4 substances from US20100209422A1.

Experiment [1] concerns the target protofibrillar (PF) form of Aβ42 (human). Kind of experiment: SPR (BIAcore), antibody immobilized, PF Aβ42 injected. In general terms: Surface plasmon resonance follows binding to a sensor surface in real time, without labels.
Experiment [2] has the same target. Kind of experiment: SPR (BIAcore), ratio of PF binding to LMW binding.
Experiment [3] deals with low-molecular weight (LMW) form of Aβ42 (human). The experiment can be described thus: SPR (BIAcore), antibody immobilized, LMW Aβ42 injected.
low-molecular weight (LMW) form of Aβ42 (human), sequence (peptide, as listed by the source): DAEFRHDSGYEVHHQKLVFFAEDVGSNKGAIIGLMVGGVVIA

protofibrillar (PF) form of Aβ42 (human), sequence (peptide, as listed by the source): as above

As to 3D6 anti-Aβ antibody, the BIACORE Binding Analysis PF in experiment [1] worked out at 403. Moreover, the Ratio (PF/LMW) in experiment [2] stood at 0.9. The substance also returned a BIACORE Binding Analysis LMW in experiment [3] of 425.
In turn, 6E10 (antibody) registered a BIACORE Binding Analysis PF in experiment [1] of 541. In addition, the Ratio (PF/LMW) in experiment [2] turned out to be 1.4. This substance came in with a BIACORE Binding Analysis LMW in experiment [3] of 400.
The corresponding values for monoclonal antibody 4G8 are 340, 1.5 and 229.
The matching figures for 82E1 (antibody): 68.4, 1 and 69.9.
